T1: Orf virus GM-CSF/IL-2 inhibition factor (GIF), residues 1-265, C-terminal His6-tag (Orf virus, UniProt Q9J5U5, N-linked glycans)
T1 construct: also called His-tagged GIF; Orf GIF; source: HEK293T, transient expression (pHLsec), secreted; alone purified by IMAC and SEC with 0.15% CHAPS
T1 sequence: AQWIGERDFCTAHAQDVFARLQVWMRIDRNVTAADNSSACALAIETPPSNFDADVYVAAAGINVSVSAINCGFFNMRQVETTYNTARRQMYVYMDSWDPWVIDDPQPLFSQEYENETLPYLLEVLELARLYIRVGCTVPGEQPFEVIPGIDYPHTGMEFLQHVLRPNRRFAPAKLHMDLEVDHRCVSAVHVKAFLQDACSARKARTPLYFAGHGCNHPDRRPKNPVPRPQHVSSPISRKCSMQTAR

T2: Biotinylated Orf GIF, residues 1-265, C-terminal AviTag (Orf virus, UniProt Q9J5U5, biotin (AviTag, by co-expressed E. coli BirA))
T2 construct: also called biotinylated GIF; wild-type GIF; source: HEK293T, co-transfected with BirA (pDisplayBirA-ER), expression medium desalted into HBS; not shown: AviTag, C-terminal, kept
T2 sequence: T1 sequence

T3: Biotinylated Orf GIF, residues 1-265, C-terminal AviTag (Orf virus, UniProt Q9J5U5, biotin (AviTag, by co-expressed E. coli BirA))
T3 chain: T1 sequence

B1: ovine GM-CSF (granulocyte macrophage colony-stimulating factor), residues 18-144, as used as the ligand in BLI (ligand)
chain: APTRQPSPVTRPWQHVDAIKEALSLLNDSTDTAAVMDETVEVVSEMFDSQEPTCLQTRLELYKQGLRGSLTSLTGSLTMMASHYKKHCPPTQETSCETQIITFKSFKENLKDFLFIIPFDCWEPVQK
B2: ovine GM-CSF, residues 18-144, C-terminal His6-tag, from HEK293T (ligand, UniProt P28773 18-144, looked up)
chain: B1 chain
notes: also called oGM-CSF; source: HEK293T, transient expression (pHLsec); purified (TALON IMAC, SEC) or co-expressed with GIF and purified as a complex
B3: ovine GM-CSF as used as ligand in bio-layer interferometry (ligand, UniProt P28773 18-144, looked up)
chain: B1 chain
notes: also called oGMCSF; oGM-CSF
B4: ovine IL-2 (interleukin-2), residues 21-155, as used as the ligand in BLI (ligand)
chain: APTSSSTGNTMKEVKSLLLDLQLLLEKVKNPENLKLSRMHTFNFYMPKVNATELKHLKCLLEELKLLEEVLDLAPSKNLNTREIKDSMDNIKRIVLELQGSETRFTCEYDDATVKAVEFLNKWITFCQSIYSTMT
B5: ovine IL-2 as used as ligand in bio-layer interferometry (ligand, UniProt P19114 21-155, looked up)
chain: B4 chain
notes: also called oIL-2
B6: ovine IL-2, residues 21-155, C-terminal His6-tag, from HEK293T (ligand, UniProt P19114 21-155, looked up)
chain: B4 chain
notes: also called oIL-2; source: HEK293T, transient expression (pHLsec); purified (TALON IMAC, SEC) or co-expressed with GIF and purified as a complex

Experiments:
[1] = target: GIF R188A, residues 1-265, C-terminal AviTag, biotinylated (Orf virus) (UniProt Q9J5U5); test: BLI; biotinylated GIF (wild type or mutant) on streptavidin-coated biosensors, quenched with biocytin; ligand GM-CSF 1-8 uM or IL-2 3.75-30 nM; PBS pH 7.4, 0.01% BSA, 0.002% Tween-20; 298 K; Octet RED96; 1:1 interaction model; averages of triplicates
[2] = target: GIF H232A, residues 1-265, C-terminal AviTag, biotinylated (Orf virus) (UniProt Q9J5U5); test: as above
[3] = target: GIF R106A/R188A, residues 1-265, C-terminal AviTag, biotinylated (Orf virus) (UniProt Q9J5U5); test: as above
[4] = target: GIF R45A, residues 1-265, C-terminal AviTag, biotinylated (Orf virus) (UniProt Q9J5U5); test: as above
[5] = target: GIF K211A, residues 1-265, C-terminal AviTag, biotinylated (Orf virus) (UniProt Q9J5U5); test: as above
[6] = target: GIF R45A/R106A, residues 1-265, C-terminal AviTag, biotinylated (Orf virus) (UniProt Q9J5U5); test: as above
[7] = target: T1, Orf virus GM-CSF/IL-2 inhibition factor …; test: SEC-MALS; complexes purified after co-expression of GIF and cytokine in HEK293T; 1-2 mg/ml; Superdex Increase 10/300 GL in HBS pH 7.5, 298 K; settings: both partners purified
[8] = target: T2, Biotinylated Orf GIF, residues 1-265, …; test: BLI; biotinylated GIF on streptavidin sensors, quenched with biocytin; cytokine in solution (GM-CSF 1-8 μM, IL-2 3.75-30 nM); PBS pH 7.4, 0.01% BSA, 0.002% Tween-20, 298 K; 1:1 model, triplicates; settings: one partner purified
[9] = target: T3, Biotinylated Orf GIF, residues 1-265, …; test: BLI

Binder	Kd [1] [nM]	Kd [2] [nM]	Kd [3] [nM]	Kd [4] [nM]	Kd [5] [nM]	Kd [6] [nM]	stoichiometry N [7]	Kd [8] [nM]	koff [9] [s⁻¹]
B1	570	670	270	280	3700	380			
B2							2 cytokines per GIF dimer (2:2)		
B3								27	6.2e-05
B4	4.8	0.63	5.3	0.69	0.46	0.45			
B5								0.47	0.00015
B6							2 cytokines per GIF dimer (2:2)		
